These results are taken from patent US20240133885A1.

In assay [1] the target is J6MO-(vL-vH)-MYC-28z-T2A-Pac. Kind of assay: NLuc assay, supernatant on NK92MI cells expressing the CAR (no CAR 89).
In assay [2] the target is HIV1 envelop glycoprotein gp120 (HIV1). Kind of assay: Luc assay, supernatant on HL2/3 cells expressing HIV1 gp120 (control 5700).
The target in assay [3] is Lym1. Briefly: Luc assay, supernatant on BCBL-1 cells.
The target of assay [4] is Lym1. Kind of assay: Luc assay, supernatant on BC-1 cells.
In assay [5] the target is Lym1. Briefly: Luc assay, supernatant on MM1S cells.
In assay [6] the target is Lym1. Kind of assay: Luc assay, supernatant on U266 cells.
In assay [7] the target is Lym1. Briefly: Luc assay, supernatant on JSC-1 cells.
Assay [8] has as its target Lym1. Kind of assay: Luc assay, supernatant on BV173 cells.
Assay [9] has as its target Lym1. Briefly: Luc assay, supernatant on BC-3 cells.
For assay [10], the target named is Lym1. Kind of assay: Luc assay, supernatant on Raji cells.
Assay [11] addresses CD20-GA10-(vL-vH)-MYC-BBz-T2A-PAC. Briefly: Luc assay, supernatant on Jurkat cells expressing the CAR (parental 484).
The target is the same in assay [12]. Briefly: Luc assay, supernatant on NK92MI cells expressing the CAR (parental 510).
Assay [13] concerns the target CD200R-huDx182-(vL-vH)-Myc-BBz-T2A-PAC. Kind of assay: NLuc assay, supernatant on 293FT cells transfected with the CAR.
In assay [14] the target is FMC63-(vL-vH)-Myc-BBz-T2A-Pac. The assay is described as above.
The target in assay [15] is Amyloid. Briefly: Luc assay, supernatant on BCBL-1 cells.
Assay [16] has as its target Amyloid. Briefly: Luc assay, supernatant on MM1S cells.
For assay [17], the target named is Amyloid. Briefly: Luc assay, supernatant on U266 cells.
In assay [18] the target is Amyloid. Kind of assay: Luc assay, supernatant on JSC-1 cells.
The target in assay [19] is Amyloid. Kind of assay: Luc assay, supernatant on BV173 cells.
For assay [20], the target named is Amyloid. Briefly: Luc assay, supernatant on BC-3 cells.

Substance “BCMA-ECD-GGSG-NLuc-4xFlag-2xStreptag-8xHis-T2A-Pac (from UniProt Q02223 1-54) (receptor)” came in with a Mean Luc activity in assay [1] of 602.
In assay [2], “CD8SP-HIV1-3BNC117-(vL-vH)-GGSG-NLuc-4xFLAG-x2STREP-8xHis-T2A-PAC (scFv)” gave a Mean Luc activity of 8870.
In assay [2], “CD8SP-HIV1-VR-C01-(vL-vH)-GGSG-NLuc-4xFLAG-x2STREP-8xHis-T2A-PAC (scFv)” returned a Mean Luc activity of 9330.
On the same count and under the same terms, in the case of “CD8SP-HIV1-X5-(vL-vH)-GGSG-NLuc-4xFLAG-x2STREP-8xHis-T2A-PAC (scFv)” it was 12900.
Consider CD8SP-Lym1(vL-vH)-GGSG-NLuc-AcV5 (scFv), for which the Luc activity in the assay with Lym1 [3] is 7780; with Lym1 [5] it was 1580; with Lym1 [6], 258; with Lym1 [7] it was 6770; with Lym1 [8], 5560; with Lym1 [9], 11700. The MEAN LUC ACTIVITY is 7780 with Lym1 [3]; 7390 with Lym1 [4]; 1580 with Lym1 [5]; 258 with Lym1 [6]; 6770 with Lym1 [7]; 5560 with Lym1 [8]. In addition, the MEAN LUC ACTIVITY with Lym1 [9] was 11700; with Lym1 [10] it was 580000.
On to “CD20-ECx2-ECD-GGSG-TurboLuc16-4xFlag-2xStreptag-8xHis-T2A-Pac (receptor)”, for which the Mean Luc activity in [11] turned out to be 7610; in assay [12] it was 1420.
Turning to “CD200R-ECD-GGSG-NLuc-4xFlag-2xStreptag-8xHis-T2A-Pac (receptor)”, the Mean Luc activity in [13] was 18700.
With “SLAMF7-CS1-ECD-GGSG-NLuc-4xFlag-2xStreptag-8xHis-T2A-Pac (receptor)”, the Mean Luc activity in assay [14] was 37800.
On to “SP-Amyloid-158-(vL-vH)-GGSG-NLuc-4xFLAG-x2STREP-8xHis-T2A-PAC (scFv)”, for which the Luc activity with Amyloid [15] was found to be 5690; with Amyloid [16], 8170; with Amyloid [17], 3930; in the assay with Amyloid [18], 8230; with Amyloid [19] it was 6220; with Amyloid [20], 3110.
